We go through 5 variants from FireProtDB (doi:10.1016/0022-2836(92)90560-7).

B1: Ribonuclease, P00648 (parent)
chain: MMKMEGIALKKRLSWISVCLLVLVSAAGMLFSTAAKTETSSHKAHTEAQVINTFDGVADYLQTYHKLPDNYITKSEAQALGWVASKGNLADVAPGKSIGGDIFSNREGKLPGKSGRTWREADINYTSGFRNSDRILYSSDWLIYKTTDHYQTFTKIR

This data set covers variants of B1. The settings on record: Bacillus amyloliquefaciens, 25 °C, Urea, Fluorescence, MES/Tris 150 mM/150 mM/, NaCl 1 M, structure 1BNI, whole UniProt chain shown.

For W141Y, for the setting “pH 5.8”, the “ddG of mutation (higher = less stable)” value was 1.27 kcal/mol, the denaturant m value was found to be 1.98 kcal/mol/M, the “denaturant midpoint (higher = more stable)” value (shortened to “denaturant midpoint”) came out at 4.96 M and the unfolding free energy is 9.73 kcal/mol. Further, for the setting “pH 9”, the “ddG of mutation (higher = less stable)” value was found to be 0.99 kcal/mol, the denaturant m value is 2 kcal/mol/M, the “denaturant midpoint” value was determined as 4.29 M and the unfolding free energy worked out at 8.42 kcal/mol.
With W141L, for the setting “pH 5.8”, the “ddG of mutation (higher = less stable)” value amounted to 1.59 kcal/mol, the denaturant m value stood at 2 kcal/mol/M, the “denaturant midpoint” value was 4.8 M and the unfolding free energy was 9.41 kcal/mol. Moreover, where the note is “pH 9”, the “ddG of mutation (higher = less stable)” value was determined as 0.66 kcal/mol, the denaturant m value is 1.98 kcal/mol/M, the “denaturant midpoint” value is 4.47 M and the unfolding free energy was determined as 8.75 kcal/mol.
Regarding W141F, under “pH 5.8”, the “ddG of mutation (higher = less stable)” value was determined as 1.06 kcal/mol, the denaturant m value was found to be 1.89 kcal/mol/M, the “denaturant midpoint” value was 5.07 M and the unfolding free energy was found to be 9.94 kcal/mol. Moreover, under “pH 9”, the “ddG of mutation (higher = less stable)” value was determined as 0.6 kcal/mol, the denaturant m value was 2.01 kcal/mol/M, the “denaturant midpoint” value was 4.5 M and the unfolding free energy was 8.81 kcal/mol.
Regarding H65G, for the setting “pH 5.8”, the “ddG of mutation (higher = less stable)” value was 0.98 kcal/mol, the denaturant m value was found to be 1.85 kcal/mol/M, the “denaturant midpoint” value came to 5.12 M and the unfolding free energy was 10 kcal/mol. Also, for the setting “pH 9”, the “ddG of mutation (higher = less stable)” value was -0.51 kcal/mol, the denaturant m value stood at 2.07 kcal/mol/M, the “denaturant midpoint” value came out at 5.06 M and the unfolding free energy amounted to 9.92 kcal/mol.
On to H65G W141L, for which, where the note is “pH 9”, the denaturant m value amounted to 1.8 kcal/mol/M, the “denaturant midpoint” value turned out to be 4.96 M and the unfolding free energy was 9.72 kcal/mol.
